Source: patent US20110311556A1 (LFB BIOTECHNOLOGIES, published 2011)

T1: Rhesus D antigen (RhD) on Rhesus D positive red blood cells group O R1R1 (human, UniProt Q02161 2-417)
T1 construct: whole, on cells
T1 sequence (looked up): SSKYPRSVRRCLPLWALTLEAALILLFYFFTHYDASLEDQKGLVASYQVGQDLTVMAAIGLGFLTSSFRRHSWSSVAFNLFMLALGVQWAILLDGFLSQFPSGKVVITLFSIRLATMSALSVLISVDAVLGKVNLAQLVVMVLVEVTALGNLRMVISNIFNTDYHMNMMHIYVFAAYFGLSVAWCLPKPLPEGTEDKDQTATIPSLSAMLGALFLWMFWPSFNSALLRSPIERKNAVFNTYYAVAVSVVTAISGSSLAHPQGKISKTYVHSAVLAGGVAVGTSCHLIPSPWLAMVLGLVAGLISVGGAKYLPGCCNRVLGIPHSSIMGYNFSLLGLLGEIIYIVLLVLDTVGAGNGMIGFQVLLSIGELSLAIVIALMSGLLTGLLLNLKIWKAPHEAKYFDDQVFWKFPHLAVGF

B1: non-mutant (C68) anti-D antibody (sequence of the R297 antibody of clone T125 A2) (antibody, human IgG1, kappa)
heavy: not shown
light: AIRMTQSPSSFSASTGDRVTITCRASQDIRNYVAWYQQKSGKAPKFLIYAASTLQSGVPSRFSGSGSGTDFTLTINSLQSEDFATYYCQQYYNSPPTFGQGTRVEITRTVAAPSVFIFPPSDEQLKSGTASVVCLLNNFYPREAKVQWKVDNALQSGNSQESVTEQDSKDSTYSLSSTLTLSKADYEKHKVYACEVTHQGLSSPVTKSFNRGEC
notes: IgG1 tetramer; also called non-mutant (C68) antibody; T125 anti-D antibody
B2: R593 antibody (mutant (F68) anti-D antibody) (antibody, human IgG1, kappa)
heavy: not shown
light: B1 light
notes: Tetrameric IgG1 with kappa light chain, two heavy and two light chains; Phenylalanine at heavy chain position 68 (67 by Kabat); Produced in the YB2/0 line; also called mutant (F68) antibody; mutant F68 antibody

What was measured:
[1] = target: T1, Rhesus D antigen (RhD) on Rhesus D …; experiment: cytometric determination of anti-D specific activity on red blood cells
CD16 (FcγRIII receptor) = CD16 (FcγRIII receptor) (UniProt P08637 17-254, limits assumed); experiment: cell-based or functional assay
CD16 (FcγRIII receptor), sequence (P08637 17-254 limits assumed): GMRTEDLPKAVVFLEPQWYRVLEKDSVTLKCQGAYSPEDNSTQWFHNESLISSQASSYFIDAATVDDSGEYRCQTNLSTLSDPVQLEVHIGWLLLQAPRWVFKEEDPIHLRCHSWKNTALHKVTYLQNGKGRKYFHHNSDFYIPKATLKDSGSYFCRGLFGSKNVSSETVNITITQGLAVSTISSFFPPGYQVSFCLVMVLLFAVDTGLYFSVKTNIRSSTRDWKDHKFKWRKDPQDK

Binder	binding result [1]	ADCC activity: EC50 (antibody concentration producing 50% of maximum activity) (CD16 (FcγRIII receptor))
B1	binds	0.02 µg/mL
B2	binds	0.021 µg/mL
